Source: article PMC11876699, “Elongator is a microtubule polymerase selective for polyglutamylated tubulin” (The EMBO Journal, 2025)

B3: eGFP-Elp456 (Drosophila, wild type) (complex)
chain 1: MTSFRKRTVQKPIRGTRTSPHTAQVITSSGNPYLDVVIGGGLPMGSICLIEEDRFMTHAKVLAKYFLAEGVISKQEIFLGSLDDIPAEMLRRLPRPLTDQESMEQSEVQALGDAGAENGLRIAWRYNDLPLVNSEHATAKIGHHFNLMEQMDSMMLYNVKTTLWDDSPKHLDIVIDEEFSKSSSPTTPSLEQQPVEDAPPIPGTETAPQEKMPAQEEENSANNNNNNNNNSSSVTSSTKTGSQDSPLQVFHNPRYKGLLNDIQQLLRNESFVAGTKNNLCRVCLTSLGSPLWYDEHFGEDLIKFLTLLMASVRNCNSVCLITMPMHLIAKYDASLVPKIRQLVDYAIELESFAGSERETHPAFKEYSGLLHLHKMSAINTLAVHMPETPDLAFKLRRKKFIIEKFHLPPELQESSAKPDNCISGLLSNSNATASLDF
chain 2: MLSNLVVTKQKVVLVIDELNRERIAPKFIGSLLHEQGQGADTIKALPTGVSLKHVATFEALIDKYANNNTGSTTDSNSTGFNVILPTLADLLCYQTPAFIFGFLNRLRRSDNVRRVFLWASPQHLQDPHADYILAGCEYLAELVLRLESDKLLSLISRKPGGGVSNRRYSCEVSKTQFKVTPLDGGLPAGASPKQPSPEAEQTTEPASSTFKIELDEDEVLARNALTLPYERTSEPSEGNIIYTPDADDDFDEEDPDEDLCI
chain 3: MATSVLLACGLNEQKLPGFVHISEESNVDASFLISCVLGQRLRISNAGTLLVCLQHHYQHYFNAGMRLGYNTNIFQGKTLGVIDVLSDMAGEGLASKWLTNTEGQTLTDQLVEDIRAQVERNYASRNSYTVLIDNLSILFNLGASKLQVQQFCQDLAALGKEREKLTVITKLSNSDIYQLTDNNVAKLGQVRIQVLRLKSGVFREVDGKLLIERVLDEGNYACEETRKEVLYKVNDRNVKVFAPGEIGVKV
notes: Elp4, Drosophila melanogaster; Elp5, Drosophila melanogaster; ORF; Elp6, Drosophila melanogaster; it is put on Elp4 here only by the name eGFP-Elp456 (surmised); also called eGFP-Elp456 (WT); source: E. coli BL21 (DE3) Rosetta2, purified (Glutathione Sepharose, TEV elution, Superdex 200); not shown: GST, N-terminal, cleaved; copies: 2 + 2 + 2

Legend:
[1] = molecular target: eGFP-Elp456 solo (Drosophila, three point mutations in each subunit) (Drosophila) (UniProt Q9VMQ7); test: MST; Monolith X, 25 °C; eGFP-Elp456 (WT or mutated) constant at 50 nM, tubulin or Elp123 in twofold dilution series; binding buffer with 0.05% Tween-20
[2] = molecular target: B3; test: as above
[3] = molecular target: B3; test: MST; as a11, with 100 µM tRNA (and 2.5 mM MgATP by the legend) in the buffer of both partners; details: both partners purified
[4] = molecular target: microtubules assembled from porcine brain tubulin (pig, UniProt Q2XVP4 1-451, rhodamine, AMCA, HiLyte 647 or biotin on part of the tubulin, by experiment); test: TIRF microscopy of decorated microtubules; GMPCPP-stabilized microtubules settled on passivated glass, proteins added one after the other in BRB80 imaging buffer; 100 nM 488-SNAP-Elongator or 488-SNAP-Elp123, 500 nM mScarlet-Elp456, 15 µM 647-GTP-Tubulin; details: both partners purified
[5] = molecular target: T1, Elp123 subcomplex (Drosophila Elp1, Elp2 and His6-PC-SNAP-Elp3) (Drosophila melanogaster, UniProt Q9VGK7 1-1252; Q7K4B3 1-794; Q9VQZ6 1-552, Alexa Fluor 488 on the SNAP tag); test: MST; Monolith X, 25 °C; eGFP-Elp456 (WT or mutated) constant at 50 nM, tubulin or Elp123 in twofold dilution series; binding buffer with 0.05% Tween-20; details: both partners purified
T1 construct: Elp1, Drosophila melanogaster, codon-optimised synthetic gene, untagged; Elp2, Drosophila melanogaster, codon-optimised synthetic gene, untagged; Elp3, Drosophila melanogaster, codon-optimised synthetic gene; Elutes at about 600 kDa, a dimer of Elp1-Elp2-Elp3 protomers; source: Sf9, baculovirus (biGBac pBig1a), purified (Protein C resin, heparin, Superose 6); not shown: His6, N-terminal, kept; …
T1 sequence (Q9VGK7 whole entry, chain 1 of 3): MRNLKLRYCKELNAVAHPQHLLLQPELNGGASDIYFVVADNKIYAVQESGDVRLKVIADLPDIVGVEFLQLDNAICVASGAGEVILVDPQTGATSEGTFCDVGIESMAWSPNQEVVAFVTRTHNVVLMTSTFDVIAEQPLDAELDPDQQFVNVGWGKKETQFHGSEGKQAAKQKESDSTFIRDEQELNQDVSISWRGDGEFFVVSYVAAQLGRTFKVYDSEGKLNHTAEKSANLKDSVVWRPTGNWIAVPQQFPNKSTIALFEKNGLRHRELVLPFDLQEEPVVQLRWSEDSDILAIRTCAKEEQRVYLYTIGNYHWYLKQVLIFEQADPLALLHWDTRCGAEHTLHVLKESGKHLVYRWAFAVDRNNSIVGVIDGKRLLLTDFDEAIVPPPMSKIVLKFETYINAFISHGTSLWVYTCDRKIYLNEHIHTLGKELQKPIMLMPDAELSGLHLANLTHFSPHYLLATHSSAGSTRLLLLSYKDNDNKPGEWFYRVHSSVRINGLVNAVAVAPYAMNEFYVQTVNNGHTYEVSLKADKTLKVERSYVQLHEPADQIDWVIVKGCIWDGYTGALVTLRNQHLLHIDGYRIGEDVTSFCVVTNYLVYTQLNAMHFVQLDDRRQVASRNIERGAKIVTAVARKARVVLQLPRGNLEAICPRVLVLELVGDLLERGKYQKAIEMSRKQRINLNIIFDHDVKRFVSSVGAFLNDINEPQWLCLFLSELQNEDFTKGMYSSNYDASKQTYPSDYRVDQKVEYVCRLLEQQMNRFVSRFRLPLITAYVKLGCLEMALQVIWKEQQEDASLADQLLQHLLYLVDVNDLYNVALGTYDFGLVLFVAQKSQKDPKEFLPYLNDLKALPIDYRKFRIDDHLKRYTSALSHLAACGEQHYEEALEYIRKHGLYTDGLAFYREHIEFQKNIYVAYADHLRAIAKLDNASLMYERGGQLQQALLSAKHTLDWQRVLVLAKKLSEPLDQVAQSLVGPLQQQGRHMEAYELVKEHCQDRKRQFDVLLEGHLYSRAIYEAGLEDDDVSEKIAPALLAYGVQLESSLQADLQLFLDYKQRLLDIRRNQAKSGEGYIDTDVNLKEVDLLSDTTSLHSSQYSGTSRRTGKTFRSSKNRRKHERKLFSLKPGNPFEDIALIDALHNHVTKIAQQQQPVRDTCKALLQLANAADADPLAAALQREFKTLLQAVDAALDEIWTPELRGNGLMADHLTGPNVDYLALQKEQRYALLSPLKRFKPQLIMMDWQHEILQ
T1 sequence (Q7K4B3 whole entry, chain 2 of 3): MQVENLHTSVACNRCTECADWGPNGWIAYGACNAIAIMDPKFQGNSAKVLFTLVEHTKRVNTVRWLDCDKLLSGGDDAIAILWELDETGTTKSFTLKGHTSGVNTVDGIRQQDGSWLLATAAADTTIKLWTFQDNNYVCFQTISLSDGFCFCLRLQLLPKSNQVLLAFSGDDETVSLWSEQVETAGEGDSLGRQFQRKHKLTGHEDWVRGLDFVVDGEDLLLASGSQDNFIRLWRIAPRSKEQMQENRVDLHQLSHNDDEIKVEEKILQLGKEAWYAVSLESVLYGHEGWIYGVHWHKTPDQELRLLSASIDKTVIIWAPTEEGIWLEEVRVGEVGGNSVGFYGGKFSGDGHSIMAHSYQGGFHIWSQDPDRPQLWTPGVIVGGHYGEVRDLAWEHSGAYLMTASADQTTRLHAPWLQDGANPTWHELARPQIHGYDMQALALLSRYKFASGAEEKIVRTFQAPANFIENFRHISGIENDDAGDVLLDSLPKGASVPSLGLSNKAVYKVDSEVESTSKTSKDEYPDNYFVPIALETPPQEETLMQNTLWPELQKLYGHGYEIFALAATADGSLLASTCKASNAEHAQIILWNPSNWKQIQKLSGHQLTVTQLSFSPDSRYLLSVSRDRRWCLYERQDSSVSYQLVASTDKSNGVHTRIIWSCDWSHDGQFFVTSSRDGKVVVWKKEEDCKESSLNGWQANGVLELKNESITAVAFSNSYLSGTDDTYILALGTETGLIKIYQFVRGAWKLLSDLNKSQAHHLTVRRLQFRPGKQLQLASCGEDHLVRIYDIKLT
T1 sequence (Q9VQZ6 whole entry, chain 3 of 3): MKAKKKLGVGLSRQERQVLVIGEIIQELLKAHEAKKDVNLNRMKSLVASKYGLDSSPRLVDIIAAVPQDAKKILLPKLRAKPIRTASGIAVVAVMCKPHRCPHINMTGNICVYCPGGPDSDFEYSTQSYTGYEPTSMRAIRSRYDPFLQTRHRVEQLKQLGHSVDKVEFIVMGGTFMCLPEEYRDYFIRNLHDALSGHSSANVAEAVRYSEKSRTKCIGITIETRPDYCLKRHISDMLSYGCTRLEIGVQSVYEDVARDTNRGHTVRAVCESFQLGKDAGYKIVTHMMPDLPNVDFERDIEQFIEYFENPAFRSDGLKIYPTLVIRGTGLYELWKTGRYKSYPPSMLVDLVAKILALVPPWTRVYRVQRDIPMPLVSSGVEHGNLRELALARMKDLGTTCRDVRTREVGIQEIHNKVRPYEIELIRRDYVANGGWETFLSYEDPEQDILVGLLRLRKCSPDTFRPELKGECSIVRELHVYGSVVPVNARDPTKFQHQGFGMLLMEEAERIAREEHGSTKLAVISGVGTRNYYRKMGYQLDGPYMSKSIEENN

**Q.** Which Kd [1] does the source give for “Elp123 subcomplex (Drosophila Elp1, Elp2 and His6-PC-SNAP-Elp3) (from UniProt Q9VGK7 1-1252; Q7K4B3 1-794; Q9VQZ6 1-552)” here?
**A.** 67.1 nM

**Q.** How did the Kd [2] turn out when “tubulin purified from TTLL1/7-double KO mouse brain (lacking polyglutamylation) (from UniProt P68369 1-451; Q7TMM9 1-445) (complex)” was run?
**A.** > 25000 nM

**Q.** How did the Kd [2] turn out when “de-tyrosinated HeLa S3 tubulin (treated with carboxypeptidase A) (from UniProt P68363 1-451; P07437 1-444) (complex)” was run?
**A.** > 22000 nM

**Q.** How did the Kd [2] turn out when “tubulin purified from HeLa S3 cells (from UniProt P68363 1-451; P07437 1-444) (complex)” was run?
**A.** 21200 nM

**Q.** With “pig brain tubulin (free GTP-αβ-tubulin heterodimers) (from UniProt Q2XVP4 1-451; P02554 1-445) (complex)” as the molecule, how does the Kd [2] read?
**A.** 1800 nM

B1: recombinant Drosophila α1β1-tubulin heterodimers (His6-PC-tubulin α1 84B with co-purified tubulin β1 56D) (complex)
chain 1: MRECISIHVGQAGVQIGNACWELYCLEHGIQPDGQMPSDKTVGGGDDSFNTFFSETGAGKHVPRAVFVDLEPTVVDEVRTGTYRQLFHPEQLITGKEDAANNYARGHYTIGKEIVDLVLDRIRKLADQCTGLQGFLIFHSFGGGTGSGFTSLLMERLSVDYGKKSKLEFAIYPAPQVSTAVVEPYNSILTTHTTLEHSDCAFMVDNEAIYDICRRNLDIERPTYTNLNRLIGQIVSSITASLRFDGALNVDLTEFQTNLVPYPRIHFPLVTYAPVISAEKAYHEQLSVAEITNACFEPANQMVKCDPRHGKYMACCMLYRGDVVPKDVNAAIATIKTKRTIQFVDWCPTGFKVGINYQPPTVVPGGDLAKVQRAVCMLSNTTAIAEAWARLDHKFDLMYAKRAFVHWYVGEGMEEGEFSEAREDLAALEKDYEEVGMDSGDGEGEGAEEY
chain 2: MREIVHIQAGQCGNQIGAKFWEIISDEHGIDATGAYHGDSDLQLERINVYYNEASGGKYVPRAVLVDLEPGTMDSVRSGPFGQIFRPDNFVFGQSGAGNNWAKGHYTEGAELVDSVLDVVRKEAESCDCLQGFQLTHSLGGGTGSGMGTLLISKIREEYPDRIMNTYSVVPSPKVSDTVVEPYNATLSVHQLVENTDETYCIDNEALYDICFRTLKLTTPTYGDLNHLVSLTMSGVTTCLRFPGQLNADLRKLAVNMVPFPRLHFFMPGFAPLTSRGSQQYRALTVPELTQQMFDAKNMMAACDPRHGRYLTVAAIFRGRMSMKEVDEQMLNIQNKNSSYFVEWIPNNVKTAVCDIPPRGLKMSATFIGNSTAIQELFKRISEQFTAMFRRKAFLHWYTGEGMDEMEFTEAESNMNDLVSEYQQYQEATADEDAEFEEEQEAEVDEN
modifications: the paper calls this tubulin highly modified (polyglutamylated, acetylated and partially detyrosinated)
notes: tubulin α1 84B, Drosophila melanogaster, codon-optimised gene; tubulin β1 56D, Drosophila melanogaster, endogenous, co-purified with the tagged α chain; also called recombinant Drosophila tubulin; PC-α-Tubulin; source: D.mel-2 (S2) cells stably transfected (pMT Puro), purified (Protein C resin, Superdex 200); also in S2 cell lysate; not shown: His6, N-terminal, kept; PC, N-terminal, kept
**Q.** Which results are given for B1?
**A.** Kd [3]: 2900 nM; Kd [1]: 1600 nM; Kd ([2]; both partners purified): 1200 nM

B2: mScarlet-Elp456 (Drosophila) (complex)
chain 1: MTSFRKRTVQKPIRGTRTSPHTAQVITSSGNPYLDVVIGGGLPMGSICLIEEDRFMTHAKVLAKYFLAEGVISKQEIFLGSLDDIPAEMLRRLPRPLTDQESMEQSEVQALGDAGAENGLRIAWRYNDLPLVNSEHATAKIGHHFNLMEQMDSMMLYNVKTTLWDDSPKHLDIVIDEEFSKSSSPTTPSLEQQPVEDAPPIPGTETAPQEKMPAQEEENSANNNNNNNNNSSSVTSSTKTGSQDSPLQVFHNPRYKGLLNDIQQLLRNESFVAGTKNNLCRVCLTSLGSPLWYDEHFGEDLIKFLTLLMASVRNCNSVCLITMPMHLIAKYDASLVPKIRQLVDYAIELESFAGSERETHPAFKEYSGLLHLHKMSAINTLAVHMPETPDLAFKLRRKKFIIEKFHLPPELQESSAKPDNCISGLLSNSNATASLDF
chain 2: MLSNLVVTKQKVVLVIDELNRERIAPKFIGSLLHEQGQGADTIKALPTGVSLKHVATFEALIDKYANNNTGSTTDSNSTGFNVILPTLADLLCYQTPAFIFGFLNRLRRSDNVRRVFLWASPQHLQDPHADYILAGCEYLAELVLRLESDKLLSLISRKPGGGVSNRRYSCEVSKTQFKVTPLDGGLPAGASPKQPSPEAEQTTEPASSTFKIELDEDEVLARNALTLPYERTSEPSEGNIIYTPDADDDFDEEDPDEDLCI
chain 3: MATSVLLACGLNEQKLPGFVHISEESNVDASFLISCVLGQRLRISNAGTLLVCLQHHYQHYFNAGMRLGYNTNIFQGKTLGVIDVLSDMAGEGLASKWLTNTEGQTLTDQLVEDIRAQVERNYASRNSYTVLIDNLSILFNLGASKLQVQQFCQDLAALGKEREKLTVITKLSNSDIYQLTDNNVAKLGQVRIQVLRLKSGVFREVDGKLLIERVLDEGNYACEETRKEVLYKVNDRNVKVFAPGEIGVKV
notes: Elp4, Drosophila melanogaster; Elp5, Drosophila melanogaster; ORF; Elp6, Drosophila melanogaster; put on Elp4 here by the name only (surmised); source: E. coli BL21 (DE3) Rosetta2, purified (Glutathione Sepharose, TEV elution, Superdex 200); not shown: GST, N-terminal, cleaved; copies: 2 + 2 + 2
**Q.** Which “fold less fluorescence intensity on microtubules without Elp123 than with it” value [4] does the source give for B2 here?
**A.** 9.3 fold

**Q.** How did the Kd [5] turn out when B3 was run?
**A.** 15.5 ± 3.7 nM
